In article PMC8210318:

Tests used:
RPA heterotrimer [1] = biological target: T1, RPA heterotrimer (UniProt P27694+P15927+P35244); assay: fluorescence anisotropy; details: EMSA: 10 mM Tris pH 7.5, 50 ug/ml BSA, 5% glycerol, 25 mM DTT, 37 C 10 min, 25 nM DNA, 5% TBE gel, anisotropy: same buffer, 30 C
RPA heterotrimer [2] = biological target: T1, RPA heterotrimer; assay: EMSA; details: 25 nM DNA, EMSA: 10 mM Tris pH 7.5, 50 ug/ml BSA, 5% glycerol, 25 mM DTT, 37 C 10 min, 5% TBE gel

T1 sequence (P27694 whole entry, chain 1 of 3): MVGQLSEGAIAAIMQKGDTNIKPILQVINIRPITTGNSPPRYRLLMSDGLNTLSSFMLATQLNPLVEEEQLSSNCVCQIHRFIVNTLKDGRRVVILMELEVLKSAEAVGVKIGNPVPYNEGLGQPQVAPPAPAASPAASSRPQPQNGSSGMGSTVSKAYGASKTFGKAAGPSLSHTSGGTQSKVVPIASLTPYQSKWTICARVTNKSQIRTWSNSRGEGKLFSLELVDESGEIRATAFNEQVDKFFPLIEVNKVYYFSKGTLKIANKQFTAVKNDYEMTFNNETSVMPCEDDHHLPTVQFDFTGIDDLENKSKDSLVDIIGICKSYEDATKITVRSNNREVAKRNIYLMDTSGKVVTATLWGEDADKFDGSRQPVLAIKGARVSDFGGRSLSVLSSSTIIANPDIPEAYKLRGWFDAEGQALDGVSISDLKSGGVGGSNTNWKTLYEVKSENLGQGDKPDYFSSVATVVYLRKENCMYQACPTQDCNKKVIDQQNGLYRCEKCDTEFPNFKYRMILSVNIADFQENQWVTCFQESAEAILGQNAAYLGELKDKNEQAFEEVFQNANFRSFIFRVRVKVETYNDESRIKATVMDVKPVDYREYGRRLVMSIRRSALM
T1 sequence (P15927 whole entry, chain 2 of 3): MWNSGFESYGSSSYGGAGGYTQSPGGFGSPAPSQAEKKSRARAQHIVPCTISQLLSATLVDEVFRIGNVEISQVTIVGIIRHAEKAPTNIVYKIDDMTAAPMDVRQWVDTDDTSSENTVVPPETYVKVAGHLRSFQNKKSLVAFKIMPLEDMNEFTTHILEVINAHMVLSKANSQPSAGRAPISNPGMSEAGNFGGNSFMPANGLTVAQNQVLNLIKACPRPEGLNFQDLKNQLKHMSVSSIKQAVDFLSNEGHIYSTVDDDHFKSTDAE
T1 sequence (P35244 whole entry, chain 3 of 3): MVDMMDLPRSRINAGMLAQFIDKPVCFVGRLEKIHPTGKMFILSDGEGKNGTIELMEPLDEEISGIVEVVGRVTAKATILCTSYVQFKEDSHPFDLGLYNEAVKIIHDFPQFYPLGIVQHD

| Sequence | Kd (RPA heterotrimer [1]; with 500 nM BSA as control) [nM] | Kd (RPA heterotrimer [1]; with 500 nM N-HelQ, which displaces RPA) [nM] | binding signal (RPA heterotrimer [2]; 12.5 nM RPA, anisotropy: same buffer, 30 C) [% bound] | binding signal (% of bound DNA released) (RPA heterotrimer [2]; N-HelQ titrated (up to 500 nM), anisotropy: same buffer …) |
| --- | --- | --- | --- | --- |
| GTCGGATCCTCTAGACAGCATCCATGATCACTGGCACTGGTAGAATTCGGC / CAACGTCATAGACGATTACATTGCTACATGGATGCTGTCTAGAGGATCCGA [fork-2 fluorescein] | 45.2 | 237 | – | – |
| GTCGGATCCTCTAGACAGCATCCATGATCACTGGCACTGGTAGAATTCGGC / CAACGTCATAGACGATTACATTGCTACATGGATGCTGTCTAGAGGATCCGA [fork-2] | – | – | 100 | 40 |
